Ends that are not written are not given here.
Legend:
Fbox-21 = target: T1, Fbox-21 (human, UniProt O94952 1-628); test: human protein microarray (Protoarray), fluorescence intensity
T1 construct: GST fusion adsorbed on a nitrocellulose slide
T1 sequence (looked up): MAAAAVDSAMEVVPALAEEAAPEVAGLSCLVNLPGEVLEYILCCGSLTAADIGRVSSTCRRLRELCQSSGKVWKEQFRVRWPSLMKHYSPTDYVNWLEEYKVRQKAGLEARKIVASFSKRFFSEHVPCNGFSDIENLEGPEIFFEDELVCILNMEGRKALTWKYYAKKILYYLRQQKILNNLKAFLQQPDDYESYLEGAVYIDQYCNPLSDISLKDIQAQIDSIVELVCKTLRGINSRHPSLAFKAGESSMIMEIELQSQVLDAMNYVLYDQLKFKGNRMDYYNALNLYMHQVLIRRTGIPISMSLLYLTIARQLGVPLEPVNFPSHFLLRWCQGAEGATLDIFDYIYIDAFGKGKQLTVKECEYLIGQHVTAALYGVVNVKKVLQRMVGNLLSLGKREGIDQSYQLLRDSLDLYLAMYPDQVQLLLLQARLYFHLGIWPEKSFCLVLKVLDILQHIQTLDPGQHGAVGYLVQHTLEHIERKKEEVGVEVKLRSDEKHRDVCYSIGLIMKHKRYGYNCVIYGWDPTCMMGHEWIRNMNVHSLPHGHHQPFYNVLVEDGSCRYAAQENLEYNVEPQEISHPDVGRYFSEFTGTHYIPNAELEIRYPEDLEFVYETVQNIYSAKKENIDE
Description: (§1) The prescribed cover slip was placed over the array and adjusted to remove air bubbles. The array was incubated in a 50 ml conical tube, printed side up, for 1.5 hours at 4 C without shaking. The array was then removed from the conical tube inserted diagonally into the array chamber, kept on ice. 8 ml probing buffer was added to the chamber wall. The cover slip was removed and the array was incubated in probing buffer for 1 minute on ice. The probing buffer was decanted and drained. Two further washings were performed adding 8 ml probing buffer, incubating on ice for 1 minute, and decanting and draining. 5 nM fluorescently labeled streptavidin diluted in 6 ml probing buffer was incubated on the array for 30 minutes on ice in the dark, after which the solution was decanted and drained. Three wash steps were performed, each by adding 8 ml probing buffer, incubating for 1 minute on ice, decanting, and draining. The array was removed from the chamber, centrifuged at 800×g for 5 minutes at room temperature. The array was dried in the dark for 60 minutes at room temperature, after which it was scanned using a fluorescent microarray scanner and data was taken and analyzed.

GRP58 = target: T2, GRP58 (human, UniProt P30101 25-505, limits assumed); test: as above
T2 construct: GST fusion adsorbed on a nitrocellulose slide
T2 sequence (looked up): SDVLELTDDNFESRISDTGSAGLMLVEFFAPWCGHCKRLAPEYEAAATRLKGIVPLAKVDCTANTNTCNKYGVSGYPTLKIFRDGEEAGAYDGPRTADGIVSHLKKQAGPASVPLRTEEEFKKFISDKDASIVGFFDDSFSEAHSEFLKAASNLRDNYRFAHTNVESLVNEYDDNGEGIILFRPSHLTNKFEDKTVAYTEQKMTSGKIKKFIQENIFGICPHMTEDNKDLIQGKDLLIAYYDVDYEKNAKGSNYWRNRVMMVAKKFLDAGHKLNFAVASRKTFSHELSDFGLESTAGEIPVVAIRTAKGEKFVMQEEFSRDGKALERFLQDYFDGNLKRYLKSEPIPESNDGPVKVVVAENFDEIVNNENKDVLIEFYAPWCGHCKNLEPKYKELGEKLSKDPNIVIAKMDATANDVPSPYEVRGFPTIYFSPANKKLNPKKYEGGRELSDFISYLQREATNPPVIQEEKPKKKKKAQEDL
Description: as §1

PRKAA1 = target: T3, PRKAA1 (human, UniProt Q13131); test: Invitrogen ProtoArray Human Protein Microarray v4.0; biotinylated synbody, fluorescently labelled streptavidin; fluorescence intensity above background
T3 construct: GST fusion on the array
Description: as §1

CHAF1B = target: T4, CHAF1B (human, UniProt Q13112); test: as above
T4 construct: GST fusion on the array
Description: as §1

MCCC1 = target: T5, MCCC1 (human, UniProt Q96RQ3); test: as above
T5 construct: GST fusion on the array
T5 sequence (looked up): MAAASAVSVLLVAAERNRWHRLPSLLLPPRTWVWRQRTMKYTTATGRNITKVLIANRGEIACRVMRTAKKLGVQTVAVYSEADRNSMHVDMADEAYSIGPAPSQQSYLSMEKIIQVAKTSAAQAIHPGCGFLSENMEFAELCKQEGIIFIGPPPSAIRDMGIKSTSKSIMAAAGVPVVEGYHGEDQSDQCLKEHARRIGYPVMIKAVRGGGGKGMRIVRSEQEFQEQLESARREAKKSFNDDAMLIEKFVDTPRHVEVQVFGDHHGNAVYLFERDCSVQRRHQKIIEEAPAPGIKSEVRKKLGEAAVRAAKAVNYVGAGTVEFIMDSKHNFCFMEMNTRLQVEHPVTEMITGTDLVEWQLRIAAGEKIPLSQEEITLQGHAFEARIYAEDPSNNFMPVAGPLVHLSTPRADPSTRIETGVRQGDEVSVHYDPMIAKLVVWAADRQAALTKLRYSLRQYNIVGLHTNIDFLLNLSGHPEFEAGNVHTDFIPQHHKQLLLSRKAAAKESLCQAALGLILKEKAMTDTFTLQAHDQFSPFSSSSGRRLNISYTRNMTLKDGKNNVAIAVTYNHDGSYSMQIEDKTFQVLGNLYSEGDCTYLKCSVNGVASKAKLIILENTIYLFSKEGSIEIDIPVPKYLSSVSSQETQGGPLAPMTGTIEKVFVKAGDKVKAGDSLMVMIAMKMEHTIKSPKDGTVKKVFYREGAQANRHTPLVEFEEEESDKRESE
Description: as §1

ACTC = target: T6, ACTC (human, UniProt P68032); test: as above
T6 construct: GST fusion on the array
Description: as §1

CLEC1 = target: T7, CLEC1 (human, UniProt Q8NC01); test: as above
T7 construct: GST fusion on the array
T7 sequence (looked up): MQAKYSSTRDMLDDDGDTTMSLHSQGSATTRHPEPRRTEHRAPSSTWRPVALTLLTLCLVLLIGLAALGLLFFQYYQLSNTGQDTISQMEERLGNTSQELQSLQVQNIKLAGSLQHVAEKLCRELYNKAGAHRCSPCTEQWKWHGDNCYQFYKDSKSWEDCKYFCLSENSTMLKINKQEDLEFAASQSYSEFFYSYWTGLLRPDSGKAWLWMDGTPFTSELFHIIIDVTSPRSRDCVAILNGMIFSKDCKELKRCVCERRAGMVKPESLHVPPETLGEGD
Description: as §1

HTN1 = target: T8, HTN1 (human, UniProt P15515, limits assumed); test: as above
T8 construct: GST fusion on the array
T8 chain (looked up): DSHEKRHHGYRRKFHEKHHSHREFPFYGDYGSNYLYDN
Description: as §1

T3 sequence (Q13131 whole entry, the tested form may be a part): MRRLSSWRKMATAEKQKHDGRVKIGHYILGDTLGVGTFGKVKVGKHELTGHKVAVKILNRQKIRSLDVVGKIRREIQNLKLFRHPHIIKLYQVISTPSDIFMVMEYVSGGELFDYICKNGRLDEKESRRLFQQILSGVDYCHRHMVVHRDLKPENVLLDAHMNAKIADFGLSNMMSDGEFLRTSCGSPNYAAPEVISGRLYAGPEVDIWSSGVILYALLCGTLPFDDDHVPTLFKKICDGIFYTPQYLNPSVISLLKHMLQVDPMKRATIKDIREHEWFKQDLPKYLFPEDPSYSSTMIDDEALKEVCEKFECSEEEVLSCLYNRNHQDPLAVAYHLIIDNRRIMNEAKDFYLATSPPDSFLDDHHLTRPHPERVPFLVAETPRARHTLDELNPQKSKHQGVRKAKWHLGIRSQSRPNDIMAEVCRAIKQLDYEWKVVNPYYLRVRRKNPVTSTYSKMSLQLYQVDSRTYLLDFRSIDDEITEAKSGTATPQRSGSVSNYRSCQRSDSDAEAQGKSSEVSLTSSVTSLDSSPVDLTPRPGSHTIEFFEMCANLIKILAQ
T4 sequence (Q13112 whole entry, the tested form may be a part): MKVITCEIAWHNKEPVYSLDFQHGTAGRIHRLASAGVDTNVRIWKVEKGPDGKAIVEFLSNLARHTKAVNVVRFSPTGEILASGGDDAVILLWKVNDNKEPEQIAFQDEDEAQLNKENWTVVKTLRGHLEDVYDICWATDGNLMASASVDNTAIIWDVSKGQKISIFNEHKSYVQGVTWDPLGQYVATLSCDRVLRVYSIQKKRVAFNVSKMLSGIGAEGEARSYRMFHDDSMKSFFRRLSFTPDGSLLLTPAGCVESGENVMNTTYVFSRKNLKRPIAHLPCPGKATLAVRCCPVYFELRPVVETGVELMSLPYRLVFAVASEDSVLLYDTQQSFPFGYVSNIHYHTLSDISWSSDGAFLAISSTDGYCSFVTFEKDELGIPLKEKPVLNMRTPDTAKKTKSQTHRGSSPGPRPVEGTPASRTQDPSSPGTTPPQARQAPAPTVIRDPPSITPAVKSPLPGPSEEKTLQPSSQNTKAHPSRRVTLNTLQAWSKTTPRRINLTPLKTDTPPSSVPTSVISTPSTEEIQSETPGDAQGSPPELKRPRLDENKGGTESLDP

binding result (Fbox-21): binds
binding result (GRP58): binds
binding result (PRKAA1): no binding
binding result (CHAF1B): binds
binding result (MCCC1): binds
binding result (ACTC): binds
binding result (CLEC1): binds
binding result (HTN1): binds
B1: SYN23-26 (designed binder)
peptide 1: AHKVVPQRQIRHAYNRYGSG
peptide 2: FRGWAHIFFGPHVIYRGGSG
modifications: also: two chains joined by their C-termini to a branching Lys (epsilon/alpha N), Lys linker followed by Cys, Cys thiol biotinylated
notes: Lysine linker followed by cysteine; the thiol of the cysteine biotinylated for the protein array; also called anti-TRF synbody

— patent US20190194358A1 (ARIZONA BOARD OF REGENTS A BODY CORPORATE OF THE STATE OF …, published 2019)
